The source of these data is article PMC12003865 (Scientific Reports, 2025).

The data set concerns the molecule itself. Kind of data set: co-sedimentation.

B1: apoA-IV 1‒70/K58E variant (domain or fragment, human)
chain: GPEVSADQVATVMWDYFSQLSNNAKEAVEHLQKSELTQQLNALFQDKLGEVNTYAGDLQEKLVPFATELHER
Take B1: the binding result is “binds”.
